Assay results taken from patent US20240254231A1 (PETMEDIX, published 2024).

T1: canine PD-1 ECD-6His (canine)
T1 construct: also called recombinant canine PD-1-ECD-6His protein; not shown: hexahistidine tag
T1 chain: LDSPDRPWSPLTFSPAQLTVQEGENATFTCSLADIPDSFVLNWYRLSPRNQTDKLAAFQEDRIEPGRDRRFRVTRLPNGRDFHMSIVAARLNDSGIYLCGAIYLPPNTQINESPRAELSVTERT


How the values were obtained:
[1] = target: T1, canine PD-1 ECD-6His; assay: SPR multi-cycle kinetics, mAb captured on protein A chip, monomeric PD-1 ECD-6His analyte
Description: SPR-based monomeric affinity assays were conducted as multi-cycle kinetic experiments. Around 100 RU of purified monoclonal antibody was captured on Fc2 of a series S protein A chip (Cytiva). […] At the end of each cycle, the chip surface was regenerated with a 120 s pulse of 10 mM Glycine pH 1.9 at 30 μL/min. The data were analysed using Biacore Insight package (Cytiva) by fitting to a global 1:1 binding model with kinetic analysis.

[2] = target: T2, recombinant human PD-1 ECD-6His protein (Bio-Techne, item BP164049-1 mg) (human, UniProt Q15116 25-170); assay: SPR, mAb captured on protein A chip, PD-1 protein injected
T2 construct: extracellular domain; Bought protein; also called human PD-1-ED-6His; recombinant human PD-1 protein; not shown: hexahistidine tag
T2 sequence (Q15116 25-170): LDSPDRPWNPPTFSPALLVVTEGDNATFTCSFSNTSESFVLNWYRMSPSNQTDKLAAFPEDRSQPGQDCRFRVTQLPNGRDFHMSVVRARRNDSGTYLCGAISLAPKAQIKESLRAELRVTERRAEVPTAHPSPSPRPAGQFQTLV

Row | binding result [1] | binding result [2] | Binder
1 | binds |  | PMX152 (antibody, V domains shown, also called PM152) VH: EVQLVESGGDLVKPGGSLRLSCVASGFTFSRYYMNWVRQAPGKGPQWVAYINNAGSDRNYVDAVKGRFTISRDNAKNTLYLQMNSLRAEDTAVYYCASEIRGVVVVGHLDYWGQGTLVTVSS VL: SYVLTQLPSKSVTLNQPAHITCGGDNIGSKSVHWYQQKLGQAPVLIIYYDSIRPTGIPERFSGATSGNTATLTISGALAEDEADYYCQVWDSSAKAWVFGEGTQLTVL
2 |  | no binding (tested: 900 nM) | PMX127 (antibody, V domains shown, Alexa Fluor 647-labelled in some assays; also called PM127) VH: EVQLVESGGDLVKPGGSLRLSCVASGFSFSRYHMSWVRQAPGKGLQWVAYIVSGGISTSYADAVKGRFTISRDNAKNTLFLQMNSLRAEDTAVYYCATYGSYFFDTWGQGTLVTVSS VL: DIVMTQTPLSLSVSPGETASIFCKASQSLLHSDGKSYLNWFRQKPGQSPQRLIYRVSNRDPGVPDRFSGSGSGTDFTLRISRVEADDTGLYYCGQVIQDPTFGAGTKVELK
3 |  | no binding (tested: 900 nM) | PMX126 (antibody, V domains shown, Alexa Fluor 647-labelled in some assays) VH: EVQLVESGGDLVKPAGSLRLSCLASGFTFSSYSMSWVRQAPEKGLQSVAGINSDGDRTYYTDAVKGRFTISRDNAKSTVYLQMNSLRAEDTAMYYCVRGFSSFNAFGYWGQGTLVTVSS VL: DIVMTQTPLSLSVSPGETASISCKASQSLLHSDGNTYLSWFRQKPGQSPHRLIYAVSHRHPGVPDRFSGSGSGTDFTLRISRVEADDAGLYYCGQVIQDPWTFGAGTKVELK
